These results are taken from patent publication US20240285753A1 (DUKE UNIVERSITY, published 2024).

Broadly, the Kd is a measure of binding affinity in units of concentration. Read a high Kd as lower affinity. The EC50 (read off the curve) is the concentration needed to bring the measured effect to its halfway point. A higher EC50 (read off the curve) goes with a need for much substance.

Assay [1] addresses T1, S2hlx-Ex54.
T1 chain: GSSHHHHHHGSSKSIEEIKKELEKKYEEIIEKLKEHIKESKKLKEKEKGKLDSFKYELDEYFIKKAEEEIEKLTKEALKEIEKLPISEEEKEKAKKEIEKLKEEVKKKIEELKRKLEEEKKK
The assay is described as follows: SPR, single cycle; mAb captured on Protein A, epitope scaffold as analyte. Background: Surface plasmon resonance follows binding to a sensor surface in real time, without labels.

The target of a further assay is T2, S2hlx-Ex8-Trx.
T2 chain: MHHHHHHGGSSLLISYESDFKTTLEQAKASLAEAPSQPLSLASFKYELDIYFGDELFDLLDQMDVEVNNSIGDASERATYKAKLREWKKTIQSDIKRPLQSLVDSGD
The experiment in a line: SPR, mAb captured, scaffold as analyte.

In assay [2] the target is T3, S2hlx-15.
T3 chain: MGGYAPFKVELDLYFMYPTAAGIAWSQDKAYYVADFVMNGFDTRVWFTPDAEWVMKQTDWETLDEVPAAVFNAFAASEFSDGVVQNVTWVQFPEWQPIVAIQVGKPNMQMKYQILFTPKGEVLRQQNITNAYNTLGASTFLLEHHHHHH
The experiment in a line: SPR, mAb captured, scaffold as analyte.

The next assay concerns the target T4, S2hlx-Ex34.
T4 chain: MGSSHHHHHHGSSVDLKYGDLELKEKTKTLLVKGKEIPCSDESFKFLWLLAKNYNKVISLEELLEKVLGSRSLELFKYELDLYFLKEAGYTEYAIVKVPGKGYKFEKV
The assay is described as follows: SPR, mAb captured, scaffold as analyte.

Another assay concerns the target T5, S2hlx-Ex37.
T5 chain: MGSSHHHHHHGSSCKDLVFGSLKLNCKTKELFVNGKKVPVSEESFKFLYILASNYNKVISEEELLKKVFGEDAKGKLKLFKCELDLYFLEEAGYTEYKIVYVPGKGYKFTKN
The experiment in a line: SPR, mAb captured, scaffold as analyte.

For assay [3], the target named is T1, S2hlx-Ex54. The experiment in a line: SPR, mAb captured, scaffold as analyte.
The target of a further assay is T6, S2hlx-Ex25.
T6 chain: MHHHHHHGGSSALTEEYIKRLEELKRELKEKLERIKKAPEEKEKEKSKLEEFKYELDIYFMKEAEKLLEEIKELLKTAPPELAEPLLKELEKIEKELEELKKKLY
The assay is described as follows: SPR, mAb captured, scaffold as analyte.

For another assay, the target named is T7, S2hlx-Ex17.
T7 chain: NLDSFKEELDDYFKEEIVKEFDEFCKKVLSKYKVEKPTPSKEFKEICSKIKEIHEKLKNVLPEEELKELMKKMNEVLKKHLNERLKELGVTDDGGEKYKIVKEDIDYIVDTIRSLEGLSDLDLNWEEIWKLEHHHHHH
The assay is described as follows: SPR, mAb captured, antigen as analyte.

The next assay addresses T8, S2hlx-Ex20.
T8 chain: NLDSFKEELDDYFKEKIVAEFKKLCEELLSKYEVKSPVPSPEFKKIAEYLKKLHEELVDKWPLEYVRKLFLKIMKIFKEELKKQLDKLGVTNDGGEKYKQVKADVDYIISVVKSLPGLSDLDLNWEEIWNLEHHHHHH
The experiment in a line: SPR, mAb captured, antigen as analyte.

A further assay addresses T9, S2hlx-Ex15.
T9 chain: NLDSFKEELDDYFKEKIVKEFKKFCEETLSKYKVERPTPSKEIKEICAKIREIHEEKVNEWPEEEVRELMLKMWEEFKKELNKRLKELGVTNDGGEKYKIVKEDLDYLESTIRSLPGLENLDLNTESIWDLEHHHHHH
The assay is described as follows: SPR, mAb captured, antigen as analyte.

For the next assay, the target named is T10, S2hlx-Ex3.
T10 construct: backbone grafting design
T10 chain: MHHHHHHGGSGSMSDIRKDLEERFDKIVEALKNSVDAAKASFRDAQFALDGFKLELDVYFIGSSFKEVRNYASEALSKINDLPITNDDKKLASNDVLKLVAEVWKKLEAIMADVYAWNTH
The experiment in a line: ELISA, coated antigen, mAb titrated. In general terms: In an ELISA, binding on a coated surface is turned into a signal by an enzyme label.

A further assay has as its target T11, S2hlx-Ex4.
T11 construct: backbone grafting design
T11 chain: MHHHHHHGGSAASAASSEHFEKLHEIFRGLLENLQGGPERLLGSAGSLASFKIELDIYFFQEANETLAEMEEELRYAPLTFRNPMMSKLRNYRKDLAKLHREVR
The experiment in a line: ELISA, coated antigen, mAb titrated.

The target of another assay is T12, S2hlx-Ex2.
T12 construct: backbone grafting design
T12 chain: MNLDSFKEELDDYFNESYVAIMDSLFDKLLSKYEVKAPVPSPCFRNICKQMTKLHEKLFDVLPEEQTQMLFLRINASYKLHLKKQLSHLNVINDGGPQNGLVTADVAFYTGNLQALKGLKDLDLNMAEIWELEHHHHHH
The assay is described as follows: ELISA, coated antigen, mAb titrated.

Assay [4] has as its target T3, S2hlx-15. The assay is described as follows: ELISA, coated antigen, mAb titrated.

B1: S2P6 mAb (antibody, V domains shown)
VH: EVQLVQSGAEVKKPGASVKVSCKASGYTFTSQYMHWVRQAPGQGLEWIGIINPSGVHTSYAQKFQGRVTLTRDTSTSTLYMELSSLRSEDTAVYYCARGSPKGAFDYWGQGTLVTVSS
VL: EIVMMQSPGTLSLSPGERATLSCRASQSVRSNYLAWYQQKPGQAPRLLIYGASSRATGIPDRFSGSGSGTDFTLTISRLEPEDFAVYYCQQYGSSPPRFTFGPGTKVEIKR
Consider B1, for which the Kd with S2hlx-Ex54 [1] was found to be 45.6 nM; with S2hlx-Ex8-Trx it was 330 nM; in the assay with S2hlx-15 [2], 0.7 nM; in the assay with S2hlx-Ex34 it was 82 nM; in the assay with S2hlx-Ex37 it was 664 nM; with S2hlx-Ex54 [3] it was 45 nM. Besides, the Kd was 612 nM with S2hlx-Ex25, 29.6 nM in the assay with S2hlx-Ex17, 10.7 nM in the assay with S2hlx-Ex20 and 4 nM in the assay with S2hlx-Ex15. Also, the “EC50 (read off the curve)” value with S2hlx-Ex3 was approximately 0.06 µg/mL; with S2hlx-Ex4 it was approximately 0.07 µg/mL; with S2hlx-Ex2, approximately 0.07 µg/mL; with S2hlx-15 [4], approximately 0.1 µg/mL.
